# Test results from patent US20220202905A1, “COMPOSITION FOR PREVENTING OR TREATING NEUROTROPHIC KERATITIS WHICH CONTAINS PACAP PEPTIDE OR STABILIZED PACAP PEPTIDE” (SENJU PHARMACEUTICAL CO., LTD., priority 2019, published 2022).
# Square brackets hold non-standard residues; d marks the D form. Ala(1H-tetrazol-5-yl) = N[C@@H](Cc1nnn[nH]1)C(=O)O
# T1: PAC1 receptor (UniProt P41586 21-468, limits assumed)
# T1 sequence (looked up): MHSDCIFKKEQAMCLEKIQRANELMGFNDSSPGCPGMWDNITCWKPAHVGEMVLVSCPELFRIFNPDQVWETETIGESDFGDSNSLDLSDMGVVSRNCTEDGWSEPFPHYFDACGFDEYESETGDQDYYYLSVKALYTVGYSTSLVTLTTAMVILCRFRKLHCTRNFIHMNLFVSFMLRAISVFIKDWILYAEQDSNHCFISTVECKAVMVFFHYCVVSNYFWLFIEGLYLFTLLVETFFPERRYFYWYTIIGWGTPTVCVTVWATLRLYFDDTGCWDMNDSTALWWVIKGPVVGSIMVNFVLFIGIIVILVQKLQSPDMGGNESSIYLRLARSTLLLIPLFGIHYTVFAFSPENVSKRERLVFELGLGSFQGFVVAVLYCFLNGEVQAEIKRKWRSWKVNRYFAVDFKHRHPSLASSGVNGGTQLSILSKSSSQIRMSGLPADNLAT
# T2: VPAC1 receptor (UniProt P32241 31-457, limits assumed)
# T2 sequence (looked up): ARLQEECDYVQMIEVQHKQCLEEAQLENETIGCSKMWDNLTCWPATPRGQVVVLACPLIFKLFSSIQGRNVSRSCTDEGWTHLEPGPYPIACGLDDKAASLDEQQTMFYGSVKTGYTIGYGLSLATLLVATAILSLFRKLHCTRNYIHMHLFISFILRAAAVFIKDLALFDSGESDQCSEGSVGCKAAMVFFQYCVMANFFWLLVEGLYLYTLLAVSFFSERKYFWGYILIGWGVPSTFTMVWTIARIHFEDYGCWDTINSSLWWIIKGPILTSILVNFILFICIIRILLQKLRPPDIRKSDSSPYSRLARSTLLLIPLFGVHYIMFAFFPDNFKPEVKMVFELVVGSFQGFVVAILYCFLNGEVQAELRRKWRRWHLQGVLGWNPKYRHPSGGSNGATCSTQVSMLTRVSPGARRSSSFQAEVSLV
# Key:
# PAC1 receptor = target: T1, PAC1 receptor; assay: cell-based or functional assay
# VPAC1 receptor = target: T2, VPAC1 receptor; assay: cell-based or functional assay
"EC50 (PAC1R), cAMP inducing effect (PAC1 receptor) [nM]","EC50 (VPAC1R), cAMP inducing effect (VPAC1 receptor) [nM]",Binder
0.04,0.053,HSDGIFTXSYSRYRKQMAVKKYLAAVL (Tz (aspartic acid with carboxyl group replaced by tetrazole) at position 8; C-terminal amide (NH2)) [Peptide 4]
0.023,0.087,HSXGIFTXSYSRYRKQLAVKKYLAAVL (N-terminal mesyl (Ms-); Tz (aspartic acid with carboxyl group replaced by tetrazole) at positions 3 and 8; C-terminal amide (NH2)) [Peptide 12]
0.038,0.19,HSXGIFTXSYSRYRKQXAVKKYLAAVL (N-terminal mesyl (Ms-); Tz (aspartic acid with carboxyl group replaced by tetrazole) at positions 3 and 8; norleucine at position 17; C-terminal amide (NH2)) [Peptide 11]
0.099,0.132,HSXGIFTXSYSRYRKALAVKKYLAAVL (N-terminal acetyl (Ac-); Tz (aspartic acid with carboxyl group replaced by tetrazole) at positions 3 and 8; C-terminal amide (NH2)) [Peptide 17]
0.061,0.149,HSXGIFTXAYSRYRKQLAVKKYLAAVL (N-terminal acetyl (Ac-); Tz (aspartic acid with carboxyl group replaced by tetrazole) at positions 3 and 8; C-terminal amide (NH2)) [Peptide 15]
0.08,0.04,HSXGIFTXSYSRYRKQLAVKKYLAAVA (N-terminal acetyl (Ac-); Tz (aspartic acid with carboxyl group replaced by tetrazole) at positions 3 and 8; C-terminal amide (NH2)) [Peptide 20]
,0.101,HSXGIFTDSYSRYRKQMAVKKYLAAVL (Tz (aspartic acid with carboxyl group replaced by tetrazole) at position 3; C-terminal amide (NH2)) [Peptide 3]
0.094,0.044,HSXGIFTXSYSRYRKQLAAKKYLAAVL (N-terminal acetyl (Ac-); Tz (aspartic acid with carboxyl group replaced by tetrazole) at positions 3 and 8; C-terminal amide (NH2)) [Peptide 19]
0.079,0.072,HSXAIFTXSYSRYRKQLAVKKYLAAVL (N-terminal acetyl (Ac-); Tz (aspartic acid with carboxyl group replaced by tetrazole) at positions 3 and 8; C-terminal amide (NH2)) [Peptide 23]
0.083,0.088,Ac-HA[Ala(1H-tetrazol-5-yl)]GIFT[Ala(1H-tetrazol-5-yl)]AYSRYRKQLAVKKYLAAVL-NH2 (SMILES CC[C@H](C)[C@H](NC(=O)CNC(=O)[C@H](Cc1nnn[nH]1)NC(=O)[C@H](C)NC(=O)[C@H](Cc1c[nH]cn1)NC(C)=O)C(=O)N[C@@H](Cc1ccccc1)C(=O)N[C@H](C(=O)N[C@@H](Cc1nnn[nH]1)C(=O)N[C@@H](C)C(=O)N[C@@H](Cc1ccc(O)cc1)C(=O)N[C@@H](CO)C(=O)N[C@@H](CCCNC(=N)N)C(=O)N[C@@H](Cc1ccc(O)cc1)C(=O)N[C@@H](CCCNC(=N)N)C(=O)N[C@@H](CCCCN)C(=O)N[C@@H](CCC(N)=O)C(=O)N[C@@H](CC(C)C)C(=O)N[C@@H](C)C(=O)N[C@H](C(=O)N[C@@H](CCCCN)C(=O)N[C@@H](CCCCN)C(=O)N[C@@H](Cc1ccc(O)cc1)C(=O)N[C@@H](CC(C)C)C(=O)N[C@@H](C)C(=O)N[C@@H](C)C(=O)N[C@H](C(=O)N[C@@H](CC(C)C)C(N)=O)C(C)C)C(C)C)[C@@H](C)O) [Peptide 24]
0.088,0.028,Ac-HA[Ala(1H-tetrazol-5-yl)]GIFT[Ala(1H-tetrazol-5-yl)]SYSRYRKQAAVKKYLAAVL-NH2 (SMILES CC[C@H](C)[C@H](NC(=O)CNC(=O)[C@H](Cc1nnn[nH]1)NC(=O)[C@H](C)NC(=O)[C@H](Cc1c[nH]cn1)NC(C)=O)C(=O)N[C@@H](Cc1ccccc1)C(=O)N[C@H](C(=O)N[C@@H](Cc1nnn[nH]1)C(=O)N[C@@H](CO)C(=O)N[C@@H](Cc1ccc(O)cc1)C(=O)N[C@@H](CO)C(=O)N[C@@H](CCCNC(=N)N)C(=O)N[C@@H](Cc1ccc(O)cc1)C(=O)N[C@@H](CCCNC(=N)N)C(=O)N[C@@H](CCCCN)C(=O)N[C@@H](CCC(N)=O)C(=O)N[C@@H](C)C(=O)N[C@@H](C)C(=O)N[C@H](C(=O)N[C@@H](CCCCN)C(=O)N[C@@H](CCCCN)C(=O)N[C@@H](Cc1ccc(O)cc1)C(=O)N[C@@H](CC(C)C)C(=O)N[C@@H](C)C(=O)N[C@@H](C)C(=O)N[C@H](C(=O)N[C@@H](CC(C)C)C(N)=O)C(C)C)C(C)C)[C@@H](C)O) [Peptide 25]
0.076,0.101,HSXGIFTXSYSRYRKQMAVKKYLAAVL (N-terminal acetyl (Ac-); Tz (aspartic acid with carboxyl group replaced by tetrazole) at positions 3 and 8; C-terminal amide (NH2)) [Peptide 10]
0.066,0.075,Ac-HS[Ala(1H-tetrazol-5-yl)]GIFT[Ala(1H-tetrazol-5-yl)]AYSRYRKALAVKKYLAAVL-NH2 (SMILES CC[C@H](C)[C@H](NC(=O)CNC(=O)[C@H](Cc1nnn[nH]1)NC(=O)[C@H](CO)NC(=O)[C@H](Cc1c[nH]cn1)NC(C)=O)C(=O)N[C@@H](Cc1ccccc1)C(=O)N[C@H](C(=O)N[C@@H](Cc1nnn[nH]1)C(=O)N[C@@H](C)C(=O)N[C@@H](Cc1ccc(O)cc1)C(=O)N[C@@H](CO)C(=O)N[C@@H](CCCNC(=N)N)C(=O)N[C@@H](Cc1ccc(O)cc1)C(=O)N[C@@H](CCCNC(=N)N)C(=O)N[C@@H](CCCCN)C(=O)N[C@@H](C)C(=O)N[C@@H](CC(C)C)C(=O)N[C@@H](C)C(=O)N[C@H](C(=O)N[C@@H](CCCCN)C(=O)N[C@@H](CCCCN)C(=O)N[C@@H](Cc1ccc(O)cc1)C(=O)N[C@@H](CC(C)C)C(=O)N[C@@H](C)C(=O)N[C@@H](C)C(=O)N[C@H](C(=O)N[C@@H](CC(C)C)C(N)=O)C(C)C)C(C)C)[C@@H](C)O) [Peptide 26]
0.074,0.099,HAXGIFTXSYSRYRKQLAVKKYLAAVL (N-terminal acetyl (Ac-); Tz (aspartic acid with carboxyl group replaced by tetrazole) at positions 3 and 8; C-terminal amide (NH2)) [Peptide 14]
0.13,0.457,Ac-HS[Ala(1H-tetrazol-5-yl)]GIFT[Ala(1H-tetrazol-5-yl)]SYSRYRRQLAVRRYLAAVLGRR-NH2 (SMILES CC[C@H](C)[C@H](NC(=O)CNC(=O)[C@H](Cc1nnn[nH]1)NC(=O)[C@H](CO)NC(=O)[C@H](Cc1c[nH]cn1)NC(C)=O)C(=O)N[C@@H](Cc1ccccc1)C(=O)N[C@H](C(=O)N[C@@H](Cc1nnn[nH]1)C(=O)N[C@@H](CO)C(=O)N[C@@H](Cc1ccc(O)cc1)C(=O)N[C@@H](CO)C(=O)N[C@@H](CCCNC(=N)N)C(=O)N[C@@H](Cc1ccc(O)cc1)C(=O)N[C@@H](CCCNC(=N)N)C(=O)N[C@@H](CCCNC(=N)N)C(=O)N[C@@H](CCC(N)=O)C(=O)N[C@@H](CC(C)C)C(=O)N[C@@H](C)C(=O)N[C@H](C(=O)N[C@@H](CCCNC(=N)N)C(=O)N[C@@H](CCCNC(=N)N)C(=O)N[C@@H](Cc1ccc(O)cc1)C(=O)N[C@@H](CC(C)C)C(=O)N[C@@H](C)C(=O)N[C@@H](C)C(=O)N[C@H](C(=O)N[C@@H](CC(C)C)C(=O)NCC(=O)N[C@@H](CCCNC(=N)N)C(=O)N[C@@H](CCCNC(=N)N)C(N)=O)C(C)C)C(C)C)[C@@H](C)O) [Peptide 22]
0.033,0.064,HSXGIFTXSYSRYRKQMAVKKYLAAVL (Tz (aspartic acid with carboxyl group replaced by tetrazole) at positions 3 and 8; C-terminal amide (NH2)) [Peptide 5]
0.132,0.072,HSXGIFTXSYSRYRKXLAVKKYLAAVL (N-terminal acetyl (Ac-); Tz (aspartic acid with carboxyl group replaced by tetrazole) at positions 3 and 8; egTz (glutamine with amide replaced by tetrazole) at position 16; C-terminal amide (NH2)) [Peptide 13]
0.33,0.065,HSXGIFTXSYARYRKQLAVKKYLAAVL (N-terminal acetyl (Ac-); Tz (aspartic acid with carboxyl group replaced by tetrazole) at positions 3 and 8; C-terminal amide (NH2)) [Peptide 16]
0.061,0.033,HSXGIFTXSYSRYRKQAAVKKYLAAVL (N-terminal acetyl (Ac-); Tz (aspartic acid with carboxyl group replaced by tetrazole) at positions 3 and 8; C-terminal amide (NH2)) [Peptide 18]
0.102,0.268,Ac-HS[Ala(1H-tetrazol-5-yl)]GIFT[Ala(1H-tetrazol-5-yl)]SYSRYRRQLAVRRYLAAVL-NH2 (SMILES CC[C@H](C)[C@H](NC(=O)CNC(=O)[C@H](Cc1nnn[nH]1)NC(=O)[C@H](CO)NC(=O)[C@H](Cc1c[nH]cn1)NC(C)=O)C(=O)N[C@@H](Cc1ccccc1)C(=O)N[C@H](C(=O)N[C@@H](Cc1nnn[nH]1)C(=O)N[C@@H](CO)C(=O)N[C@@H](Cc1ccc(O)cc1)C(=O)N[C@@H](CO)C(=O)N[C@@H](CCCNC(=N)N)C(=O)N[C@@H](Cc1ccc(O)cc1)C(=O)N[C@@H](CCCNC(=N)N)C(=O)N[C@@H](CCCNC(=N)N)C(=O)N[C@@H](CCC(N)=O)C(=O)N[C@@H](CC(C)C)C(=O)N[C@@H](C)C(=O)N[C@H](C(=O)N[C@@H](CCCNC(=N)N)C(=O)N[C@@H](CCCNC(=N)N)C(=O)N[C@@H](Cc1ccc(O)cc1)C(=O)N[C@@H](CC(C)C)C(=O)N[C@@H](C)C(=O)N[C@@H](C)C(=O)N[C@H](C(=O)N[C@@H](CC(C)C)C(N)=O)C(C)C)C(C)C)[C@@H](C)O) [Peptide 21]
